The source of these data is the supplement of paper PMC10567573.

A short description of the data set: protein stability index of a GFP-peptide fusion (GPS, HEK-293T) (PSI 1-6); higher = more stable.
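Also: lentivirally expressed fusions sorted by FACS into six bins by GFP to DsRed ratio, PSI derived from sequencing read proportions per bin multiplied by bin number.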

B1: FAM46D WT (peptide)
chain: LELKFVSSLRRQFEFSVDSFQIVL
Consider B1, for which, where the note is “parent: IOH26845_27, c terminus: a fixed tail appended”, the protein stability index worked out at 3.08.

B2: FBXO3 WT (peptide)
chain: HDPLWRRHCKKYWLISEEEKTQKN
In the case of B2, the protein stability index (parent: IOH26934_9, c terminus: a fixed tail appended) was 2.91.

B3: KLHDC10 WT (peptide)
chain: CPIIRIPNRFLRGHRPPPARSGHR
Turning to B3, the protein stability index (parent: IOH26494_13, c terminus: a fixed tail appended) amounted to 1.87.

B4: RHOBTB3 WT (peptide)
chain: QLQSMPSRELASMNLDIVDLLKKA
B4: the protein stability index (parent: IOH25836_87, c terminus: a fixed tail appended) stood at 3.28.

B5: MTMR15 WT (peptide)
chain: FSPDFTLRNTLKSTSEDSLVKQEC
Regarding B5, the protein stability index (parent: IOH26921_45, c terminus: a fixed tail appended) came to 1.89.

B6: KLHDC10 WT (peptide)
chain: FGGTGIPFGESNGNGVHVCNVKYK
B6: the protein stability index (parent: IOH26494_29, c terminus: a fixed tail appended) came to 2.05.

B7: ADD1 WT (peptide)
chain: LRHSFQKQQREKTRWLNSGRGDEA
Take B7: the protein stability index (parent: IOH25868_73, c terminus: a fixed tail appended) is 3.66.

B8: TAF7L WT (peptide)
chain: PDVENEVKRLLRSDAEAVSTRWEV
On to B8, for which the protein stability index (parent: IOH26414_44, c terminus: a fixed tail appended) turned out to be 3.49.

B9: EHMT1 WT (peptide)
chain: FHKDCASRVNNASYCPHCGEESSK
With B9, for the setting “parent: IOH26527_103, c terminus: a fixed tail appended”, the protein stability index worked out at 3.47.

B10: FAM46D WT (peptide)
chain: FQEAMTHLQHKLICTRKPEEIRGG
Turning to B10, the protein stability index (parent: IOH26845_36, c terminus: a fixed tail appended) was 2.91.

B11: PSD2 WT (peptide)
chain: PLMGETQERERVLTHFSRRYCQCN
With B11, the protein stability index (parent: IOH26041_63, c terminus: a fixed tail appended) was found to be 3.06.

B12: TMEM192 WT (peptide)
chain: ILGKVILWILHLLLECYIQYHHSK
Consider B12, for which, where the note is “parent: IOH26789_17, c terminus: a fixed tail appended”, the protein stability index turned out to be 2.97.

B13: FBXO3 WT (peptide)
chain: GGFPIIRDQIFRYVHDPECVATTG
For B13, the protein stability index (parent: IOH26934_44, c terminus: a fixed tail appended) was determined as 1.75.

B14: WEE1 WT (peptide)
chain: FLGSSFSPVRCGGPGDASPRGCGA
Turning to B14, the protein stability index (parent: IOH27052_23, c terminus: a fixed tail appended) amounted to 1.95.

B15: PRAME WT (peptide)
chain: KKLKIFAMPMQDIKMILKMVQLDS
Regarding B15, the protein stability index (parent: IOH26126_36, c terminus: a fixed tail appended) is 2.56.

B16: WEE1 WT (peptide)
chain: INPFTPDSLLLHSSGQCRRRKRTY
On to B16, for which, for the setting “parent: IOH27052_40, c terminus: a fixed tail appended”, the protein stability index worked out at 3.35.

B17: TMEM192 WT (peptide)
chain: LWILHLLLECYIQYHHSKIRNRGY
For B17, the protein stability index (parent: IOH26789_18, c terminus: a fixed tail appended) is 2.02.

B18: RSPH3 WT (peptide)
chain: VDVQTELYLEEIADRIIEVDMECQ
Take B18: the protein stability index (parent: IOH27062_43, c terminus: a fixed tail appended) was found to be 2.16.

B19: FBXO3 WT (peptide)
chain: FIDTYSDVGRYIDHYAAIKKAWDD
Turning to B19, where the note is “parent: IOH26934_14, c terminus: a fixed tail appended”, the protein stability index was determined as 1.85.

B20: TRIM15 WT (peptide)
chain: LSQMGAQSSGKILLCPLCQEEEQA
With B20, the protein stability index (parent: IOH26053_8, c terminus: a fixed tail appended) is 3.51.

B21: ANKRD17 WT (peptide)
chain: EMVRFLLEAGADQEHKTDEMHTAL
B21: the protein stability index (parent: IOH26350_70, c terminus: a fixed tail appended) was determined as 2.65.

B22: FCHO1 WT (peptide)
chain: FTSSPSPFSSSSPENVEDSGLDSP
As to B22, where the note is “parent: IOH26137_77, c terminus: a fixed tail appended”, the protein stability index was 1.88.

B23: RSPH3 WT (peptide)
chain: MTVKPAKAASLARNLAKRRRTYLG
Regarding B23, under “parent: IOH27062_1, c terminus: a fixed tail appended”, the protein stability index is 2.85.

B24: ADD1 WT (peptide)
chain: FASDGDSGTCSPLRHSFQKQQREK
Turning to B24, the protein stability index (parent: IOH25868_71, c terminus: a fixed tail appended) amounted to 3.71.

B25: NETO1 WT (peptide)
chain: KTSLLDQLTNTSGTVIGVTSCIVI
In the case of B25, under “parent: IOH26431_56, c terminus: a fixed tail appended”, the protein stability index was found to be 3.09.

B26: WEE1 WT (peptide)
chain: FISRTSIPNAASEEGDEDDWASNK
For B26, the protein stability index (parent: IOH27052_73, c terminus: a fixed tail appended) was 4.02.

B27: RSAD1 WT (peptide)
chain: YCNFNKYIPRRLEEAAMQKCLVTE
Take B27: the protein stability index (parent: IOH26922_10, c terminus: a fixed tail appended) turned out to be 2.08.

B28: DFFB WT (peptide)
chain: TLVEAIKEQDGREVDWEYFYGLLF
B28: under “parent: IOH26584_46, c terminus: a fixed tail appended”, the protein stability index stood at 1.91.

B29: KLHDC10 WT (peptide)
chain: PSLLELAWEKLLAAFPNLANLSRT
With B29, where the note is “parent: IOH26494_68, c terminus: a fixed tail appended”, the protein stability index stood at 2.3.

B30: KCTD10 WT (peptide)
chain: SSKEEQKLIATSNKPAVKLLYNRS
For the protein B30, the protein stability index (parent: IOH25947_25, c terminus: a fixed tail appended) was 4.05.

B31: TRIM15 WT (peptide)
chain: QSSGKILLCPLCQEEEQAETPMAP
B31: the protein stability index (parent: IOH26053_9, c terminus: a fixed tail appended) amounted to 3.3.

B32: EHMT1 WT (peptide)
chain: SARQGELQKVLLMLVDGIDPNFKM
As to B32, the protein stability index (parent: IOH26527_125, c terminus: a fixed tail appended) amounted to 1.73.

B33: TRIM15 WT (peptide)
chain: LLARLRELEQQIWKERDEYITKVS
Consider B33, for which the protein stability index (parent: IOH26053_32, c terminus: a fixed tail appended) was 1.67.

B34: PSD2 WT (peptide)
chain: LTHFSRRYCQCNPDDSTSEDGIHT
For the protein B34, the protein stability index (parent: IOH26041_65, c terminus: a fixed tail appended) is 3.23.

B35: FCHSD1 WT (peptide)
chain: LQEPGVFSPTPPQQFQPAGTDQVC
Consider B35, for which the protein stability index (parent: IOH26591_36, c terminus: a fixed tail appended) was 3.96.

B36: CAMK2A WT (peptide)
chain: ILLVGYPPFWDEDQHRLYKQIKAG
For B36, the protein stability index (parent: IOH26807_35, c terminus: a fixed tail appended) amounted to 2.33.

B37: FBXO3 WT (peptide)
chain: AGGFQQRQGLKYCLPLTFCIHTGL
Take B37: the protein stability index (parent: IOH26934_31, c terminus: a fixed tail appended) is 2.73.

B38: NETO1 WT (peptide)
chain: GFSPIIGRFCGQQNPPVIKSSGRF
B38: the protein stability index (parent: IOH26431_19, c terminus: a fixed tail appended) was 2.17.

B39: DFFB WT (peptide)
chain: KLNCDPSRIYKPQTRLKRKQPVRK
Turning to B39, where the note is “parent: IOH26584_53, c terminus: a fixed tail appended”, the protein stability index was found to be 3.47.

B40: FANCE WT (peptide)
chain: AQVLMLGQILELPWKEETFLVLQS
In the case of B40, under “parent: IOH26415_73, c terminus: a fixed tail appended”, the protein stability index amounted to 2.44.

B41: RSPH3 WT (peptide)
chain: KAASLARNLAKRRRTYLGGAAGRS
B41: the protein stability index (parent: IOH27062_2, c terminus: a fixed tail appended) is 2.6.

B42: ADD1 WT (peptide)
chain: GEGTGSPPKWQIGEQEFEALMRML
With B42, for the setting “parent: IOH25868_61, c terminus: a fixed tail appended”, the protein stability index was 3.11.

B43: EHMT1 WT (peptide)
chain: EEINKNISDFGRQQLLPPFPSLHQ
As to B43, the protein stability index (parent: IOH26527_40, c terminus: a fixed tail appended) is 2.94.

B44: CAMK2A WT (peptide)
chain: CIQQILEAVLHCHQMGVVHRDLKP
Regarding B44, the protein stability index (parent: IOH26807_20, c terminus: a fixed tail appended) turned out to be 2.46.

B45: FCHO1 WT (peptide)
chain: DKLALCHLELTRKLQDLIKDVLRY
For B45, the protein stability index (parent: IOH26137_14, c terminus: a fixed tail appended) was 2.73.

B46: RSPH3 WT (peptide)
chain: FIPAKTGKDVATQILEGELFDFDL
With B46, the protein stability index (parent: IOH27062_49, c terminus: a fixed tail appended) was found to be 1.77.

B47: ANKRD17 WT (peptide)
chain: EVLRRLTSSVSCALDEAAAALTRM
With B47, the protein stability index (parent: IOH26350_34, c terminus: a fixed tail appended) came out at 1.95.

B48: FCHSD1 WT (peptide)
chain: LEAAEVILEHAHRGEQTTSQVSWE
For B48, where the note is “parent: IOH26591_31, c terminus: a fixed tail appended”, the protein stability index is 4.39.

B49: FCHO1 WT (peptide)
chain: HLELTRKLQDLIKDVLRYGEEQLK
Regarding B49, the protein stability index (parent: IOH26137_15, c terminus: a fixed tail appended) worked out at 2.46.

B50: MTMR15 WT (peptide)
chain: YVKAKKSIDKDEEFAGSSPQSSKS
Take B50: the protein stability index (parent: IOH26921_28, c terminus: a fixed tail appended) amounted to 3.04.

B51: FCHO1 WT (peptide)
chain: FSDPSQSDPETKDFWLNMAALTEA
As to B51, the protein stability index (parent: IOH26137_117, c terminus: a fixed tail appended) was determined as 2.84.

B52: FBXO3 WT (peptide)
chain: DEEERRRRVFDVPIRRRRCSRLF
For the protein B52, the protein stability index (parent: IOH26934_79, c terminus: native) was found to be 2.81.

B53: RSPH3 WT (peptide)
chain: LELQRQREARKRALARKQAQEQLR
With B53, for the setting “parent: IOH27062_37, c terminus: a fixed tail appended”, the protein stability index came to 3.77.
